Source: the supplement of paper PMC9170038

Test system: MS2 coat protein
Assay: apparent KD of MS2 coat protein; higher = weaker reporter binding
Conditions: Eterna round: R107
In short: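 Normalised binding curves from single clusters were fitted, and the median fit for each design is given as apparent KD. The clusters held designed RNA switches transcribed on-chip from Illumina sequencing clusters. These were titrated with SNAP-549-labelled MS2 coat protein (twofold steps from 0.7 or 1.5 nM to 3 µM, 0.8–1.5 h to 10–20 min per step) in 100 mM Tris-HCl pH 7.5, 80 mM KCl, 4 mM MgCl2, without or with constant ligand.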

[1] = input ligand: theophylline 20 uM
[2] = input ligand: theophylline 2 mM
[3] = input ligand: tryptophan 2.4 mM

Row | Sequence | apparent KD of MS2 coat protein (input ligand: arginine 13.2 mM) | apparent KD of MS2 coat protein (input ligand: none) | apparent KD of MS2 coat protein [1] | apparent KD of MS2 coat protein [2] | apparent KD of MS2 coat protein [3]
1 | GACAGAAACUGAAGGAGCGAGGUAAAACGGGAUGAGCAAACAUGAGGAUCACCCAUGUGGCCUCAGGUAGGUCGCAGAAAGAAAC [Exclusion Arginine B GF24] | 180 nM | 130 nM | 183 nM | 123 nM | 135 nM
2 | GGUGACUGCAUGUGGAAUUAAGGUAGGGAAGGAGCGCGGUAAGACGCAGGUAGGUCGCCCUACAUGAGGAUCACCCAUGUGGUGU [Beenmaer] | 114 nM | 121 nM | 135 nM | 500 nM | 36.5 nM
3 | UGAUGGUUCGGAAGGAGCGUGUAAGAACAAGAACAUGAGGAUCACCCAUGUAUUAAUUUAACACAGGUAGGUCGCCGAGUUAUUG [11.I] | 12.6 nM | 15.9 nM | 22.1 nM | 28.9 nM | 17 nM
4 | UAUAUAUAUCACUAACUGUUCUUGAGGUCUCGAGGACCGGUACGGCCGCCACUCGUGCCGCCUCACAUGAGGAUCACCCAUGUCC [XTryp A #2] | 55.3 nM | – | 79.4 nM | 81.6 nM | –
5 | GGAUGCCACUAUGGAUAGCACGAUGCCGAUACCAGCUAGGAAACUAGCCCUUGGCAGCGGAACAUGAGGAUCACCCAUGUAUCCU [EThA NP+V+V2 #8] | 21.3 nM | 24.2 nM | 30.5 nM | 42.7 nM | 21.6 nM
6 | GAACAUAUGGAUACUAUUAUGAGCACAGAAGGAGCGAGCGGAAGCUCAGGUAGGUCGCUGGGUAACAUGAGGAUCACCCAUGUUG [XArg-A sub1] | 18.7 nM | 19.1 nM | 24.7 nM | 25.6 nM | 20.8 nM
7 | GCAUCCUAGUCGGCCGCCACUGCGGAUCCGGUUCUAGAUCCUUAACAUGAGGAUCACCCAUGUAGCAGGACCGGGACUAGGAUGC [(Trp1)-(TM)''-(TM)'-(Ms2)-(Trp2)_Design2] | 91 nM | 237 nM | 251 nM | 324 nM | 295 nM
8 | GGCACAUAGUCGGCCGCCACUAGGGUGUAGUGGAAUAACAUGAGGAUCACCCAUGUAUUUGGGACUAGGACCGGGACUAUGUGCC [Leopard] | 27.2 nM | – | 40.4 nM | 30 nM | –
9 | GCACGACAUGAGGAUCACCCAUGUGCAGAUACCAGUAAUGUAUGUUACCCUUGGCAGCUGAGUAGGUCUGGAGGGCUAUAGGUUU [Same State Theophylline A GF13] | 15.4 nM | 13.9 nM | 17.2 nM | 15.6 nM | 14.1 nM
10 | AAACAUGAGGAUCACCCAUGUUGAGGAUCACGAGGACCGGUACGGCCGCCACUCGACAUGAGGAUCACCCAUGUGAGGAUCACCC [Same State - Tryptophan A #1] | 52.5 nM | – | 214 nM | 337 nM | –
11 | AUGUUGGUCUGAAGGAGCGCGAUAACAUGAGGAUCACCCAUGUUAAAUGGUACAUGAUACUCGCAGGUAGGUCGCAGUACGACAA [Same State Arginine B GF 13] | 18.6 nM | 20.7 nM | 29.7 nM | 32.2 nM | 25.1 nM
12 | GUUUACAUGAGGAUCACCCAUGUCGCCGGCCGAGGACCGGUACGGCCGCCACUCGUCCUAAUGGCACUUGACUUCCCUAUUAAGU [theeternabot_sameState_MS2_Trp_A_33] | 20.4 nM | – | 31.3 nM | 25.5 nM | –
13 | AUUAAUAGUUGUGAUACCAGACGAACAUGAGGAUCACCCAUGUAACUUUUAGGUGUUGUAGUCCCUUGGCAGCACUAUGUAGUUA [JR_SSTheophyB_Sub013] | 31.1 nM | – | 44.5 nM | – | 32.6 nM
14 | UGUAUGUGAUCUGAUACCAGACGUGUAAACCUGAGGAUCACCCUGGUAAGGCGAAAGCCAGUCCCUUGGCAGCAGAUCGCAUACU | 47.7 nM | 49 nM | 40 nM | 21.5 nM | 50 nM
15 | AUGUCAUUGGUGCAGCUGUUAAAUGGCGAUACCAGCGUGGAAACACGCCCUUGGCAGCGCCAAAACAUGAGGAUCACCCAUGUUA [Zlin] | 23 nM | – | 54.6 nM | – | 27.1 nM
16 | ACUCGGUGUUUGUUGCUCCGAGUUUAUGAUACCAGUUAGUUUUAUGGCCCUUGGCAGCAUAGGACAUGAGGAUCACCCAUGUGUU [#03 SameState-TheophyllineA] | 26.2 nM | – | 38.6 nM | – | 32.2 nM
17 | UUAAUCAUAUUAGAAAACUAAUAUGCAGAAGGAGCGUGAUAAAACACAGGUAGGUCGCUGAAGGGAACAUGAGGAUCACCCAUGU [AstrosSSArgA#8] | 26.5 nM | 25.7 nM | 32.7 nM | 33 nM | 26 nM
18 | UUCUGGUCCCGUGAUACCAGAGACAUGAGGAUCACCCAUGUACAUGAGGAUCACCCAUGUUUCCCUUGGCAGCACUGCAGUGAGC [Exclusion Theophylline B GF 15] | 56 nM | 261 nM | 160 nM | 332 nM | 147 nM
